Measured values reported in patent US6933284 (University of California, dated 2005).

Legend:
[1] = target: T1, K3363E LDL (recombinant LDL, human apo-B100 with glutamic acid for lysine at residue 3363) (human, UniProt P04114 28-4563); test: gel-mobility shift, three independent experiments
T1 construct: mature; Tested as a purified LDL particle from transgenic mouse plasma
Experimental: (§1) The interaction between LDL and biglycan or versican was investigated by a gel-mobility shift assay (Camejo, G. et al. 1993. *J. Biol Chem.* 268:14131–14137). Before the assay, the (^35S)biglycan and (^35S)versican preparations were dialyzed extensively at 4° C. against 10 mM HEPES, 150 mM NaCl, 5 mM CaCl_2, and 2 mM MgCl_2 (pH 7.4, Buffer A), and the protein concentrations were determined (BioRad Laboratories) with bovine gamma globulin as the standard. Increasing concentrations of LDL were incubated with approximately 2000 dpm of (^35S)biglycan or (^35S)versican for 1 h at 37° C. in a total volume of 20 μl of Buffer A. Three microliters of bromophenol blue:glycerol (1:1, v/v) was added to the samples, and 20 μl was loaded into wells of 0.7% NuSieve (FMC BioProducts) agarose gels prepared on Gel-Bond film (FMC BioProducts). Electrophoresis was run for 3 h at 60V with recirculating buffer (10 mM HEPES, 2 mM CaCl_2, 4 mM MgCl_2 pH 7.2) in a cold room. Gels were fixed with 0.1% cetyl pyridium chloride in 70% ethanol for 90 min, air-dried, and exposed to Hyper Film-MP (Amersham Life Sciences) at ^-70° C. The (^35S)biglycan or (^35S)versican complexed to LDL appears as a band at the […] with a Hewlett Packard Scan Jet II cx and ImageQuant software (Molecular Dynamics).
(§2) This procedure has the advantages that only microgram quantities of lipoproteins are required and the relative affinity of LDL binding to the proteoglycans can be determined at physiological ionic and pH conditions. […] Of particular interest was that recombinant K3363E LDL interacted defectively with both versican and biglycan but had normal receptor binding.

human plasma LDL = target: T2, human plasma LDL (human, UniProt P04114 28-4563, 125I-labeled where used as tracer in the receptor assay); test: gel-mobility shift, three independent experiments
T2 construct: mature; Native LDL particle; also called normal human plasma LDL
Experimental: as §1, §2

[2] = target: T3, RK3359-3369SA LDL (recombinant LDL, human apo-B100 with the arginines of Site B changed to serines and the … (human, UniProt P04114 28-4563)); test: gel-mobility shift, three independent experiments
T3 construct: mature; Tested as a purified LDL particle from transgenic mouse plasma; Q2153L follows from the statement that R3500Q is the only LDL without the 'Leu-Leu' mutation; also called recombinant LDL with the uncharged Site B
Experimental: as §1, §2

[3] = target: T4, recombinant control LDL without the 'Leu-Leu' mutation (LDL generated by the unmodified apo-B100 P1 … (human, UniProt P04114 28-4563)); test: gel-mobility shift, data not shown
T4 construct: mature; Tested as an LDL particle
Experimental: as §1, with “Before” for “The interaction between LDL and biglycan or versican was investigated by a gel-mobility shift assay (Camejo, G. et al. 1993. *J. Biol Chem.* 268:14131–14137). Before”
This procedure has the advantages that only microgram quantities of lipoproteins are required and the relative affinity of LDL binding to the proteoglycans can be determined at physiological ionic and pH conditions. […]

[4] = target: T5, recombinant control LDL (human apo-B100 with leucine in place of glutamine at position 2153) (human, UniProt P04114 28-4563); test: summary table, proteoglycan binding (biglycan and versican were the proteoglycans tested)
T5 construct: mature; one apo-B100 per particle, with lipid; also called wild-type recombinant LDL; 'Leu-Leu' apo-B100 LDL

[5] = target: T4, recombinant control LDL without the …; test: receptor-binding activity, details not given
[6] = target: T5, recombinant control LDL (human apo-B100 …); test: summary table, LDL receptor binding
[7] = target: T1, K3363E LDL (recombinant LDL, human …); test: summary table, LDL receptor binding

Measured: binding result

B1: (35S)biglycan from cultured human arterial smooth muscle cells (other, UniProt P21810 38-368, looked up)
chain: DEEASGADTSGVLDPDSVTPTYSAMCPFGCHCHLRVVQCSDLGLKSVPKEISPDTTLLDLQNNDISELRKDDFKGLQHLYALVLVNNKISKIHEKAFSPLRKLQKLYISKNHLVEIPPNLPSSLVELRIHDNRIRKVPKGVFSGLRNMNCIEMGGNPLENSGFEPGAFDGLKLNYLRISEAKLTGIPKDLPETLNELHLDHNKIQAIELEDLLRYSKLYRLGLGHNQIRMIENGSLSFLPTLRELHLDNNKLARVPSGLPDLKLLQVVYLHSNNITKVGVNDFCPMGFGVKRAYYNGISLFNNPVPYWEVQPATFRCVTDRLAIQFGNYKK
modifications: glycosaminoglycan chains metabolically labeled with (35S)SO4
notes: Proteoglycan: core protein with glycosaminoglycan chains; also called pool 3
binds: [1] | human plasma LDL | [2] | [3] | [4]

B2: LDL receptor on normal human fibroblasts (receptor)
chain: not shown
notes: whole, on cells; also called LDL receptors
binds: [5] | [6] | [7]
